# Results taken from publication PMC9417184.
# Tests used:
# [1] = target: Rhodospirillaceae bacterium BRH_c57 form II RuBisCO (Rhodospirillaceae bacterium BRH_c57); assay: crystal structure; X-ray; RuBisCO activated and incubated with a tenfold molar excess of CABP; molecular replacement
# [2] = target: Rhodospirillaceae bacterium BRH_c57 form II RuBisCO (Rhodospirillaceae bacterium BRH_c57); assay: SEC-MALS + other: SAXS; SEC-SAXS-MALS; RuBisCO at 2 to 5 mg/ml, activated with excess NaHCO3; Shodex KW-803 column; 20 mM Hepes-OH pH 8.0, 300 mM NaCl, 10 mM MgCl2, 10 mM NaHCO3; oligomeric state of the enzyme
# [3] = target: Gallionella sp. form II RuBisCO R98A (Gallionella sp.); assay: as above
# [4] = target: Sulfurivirga caldicuralii form II RuBisCO (Sulfurivirga caldicuralii); assay: crystal structure; X-ray; RuBisCO activated and incubated with a tenfold molar excess of CABP; molecular replacement
# [5] = target: Sulfurivirga caldicuralii form II RuBisCO (Sulfurivirga caldicuralii); assay: SEC-MALS + other: SAXS; SEC-SAXS-MALS; RuBisCO at 2 to 5 mg/ml, activated with excess NaHCO3; Shodex KW-803 column; 20 mM Hepes-OH pH 8.0, 300 mM NaCl, 10 mM MgCl2, 10 mM NaHCO3; oligomeric state of the enzyme
# [6] = target: Insolitispirillum peregrinum form II RuBisCO, wild type (Insolitispirillum peregrinum); assay: as above
# [7] = target: Gallionella sp. form II RuBisCO R131A (Gallionella sp.); assay: as above
# [8] = target: Gallionella sp. form II RuBisCO, wild type (GWS1B) (Gallionella sp.); assay: as above
substance,measurement,setting,value
Rhodospirillaceae bacterium BRH_c57 form II RuBisCO (enzyme),stoichiometry N,[1],6
same,stoichiometry N,[2],6
Gallionella sp. form II RuBisCO R98A (enzyme),stoichiometry N,[3],2
Sulfurivirga caldicuralii form II RuBisCO (enzyme),stoichiometry N,[4],4
same,stoichiometry N,[5],4
"Insolitispirillum peregrinum form II RuBisCO, wild type (enzyme)",stoichiometry N,[6],2
Gallionella sp. form II RuBisCO R131A (enzyme),stoichiometry N,[7],2
"Gallionella sp. form II RuBisCO, wild type (GWS1B) (enzyme)",stoichiometry N,[8],6
